Source: patent US20060134087A1, “ITI-D1 Kunitz domain mutants as hNE inhibitors” (Dyax Corp., published 2006)

Assays:
[1] = target: T1, Human Neutrophil Elastase (human, UniProt P08246); assay: progressive inhibition of hNE substrate hydrolysis after addition of inhibitor
Procedure: The kinetic on-rates for the inhibitors reacting with hNE (kₒₙ) were determined from measurements of progressive inhibition of substrate hydrolytic activity by hNE following addition of inhibitor. For these experiments, a known concentration of inhibitor was added to a solution of hNE (0.847 nM) and substrate (25 μM) in 2 ml of reaction buffer in a plastic fluorescence cuvette. The change in fluorescence was recorded continuously following addition of the inhibitor. […] The enzymatic rate at selected times following addition of the inhibitor was determined from the slope of the tangent to the fluorescence time course at that time.
The kinetic constant kₒₙ for EPI-HNE-2 reacting with hNE was determined as follows. EPI-HNE-2 at 1.3 nM was added to buffer containing 0.867 nM hNE (I:E=1.5:1) at time 0.

[2] = target: T1, Human Neutrophil Elastase; assay: enzyme inhibition assay
Procedure: (§1) Inhibition constants for the proteins reacting with hNE (Kᵢ) were determined using RT measurements of hydrolysis of a fluorogenic substrate (N-methoxysuccinyl-Ala-Ala-Pro-Val-7-amino-4-methylcoumarin, Sigma M-9771) by hNE. […] The reactions were incubated at RT for 30 minutes. At the end of the incubation period, the fluorogenic substrate was added at a concentration of 25 μM and the time course for increase in fluorescence at 470 nm (excitation at 380 nm) due to enzymatic substrate cleavage was recorded using a spectrofluorimeter (Perkin-Elmer 650-15) and strip chart recorder. […] Kᵢ is related to Kₐₚₚₐᵣₑₙₜ by Kᵢ=Kₐₚₚₐᵣₑₙₜ×(1/(1+(S₀/Kₘ))). The correction is small compared to the possible errors in Kₐₚₚₐᵣₑₙₜ. Rates of enzymatic substrate cleavage were determined from the linear slopes of the recorded increases in fluorescence.
(§2) We recorded data used to determine Kᵢ for EPI-HNE-2 and EPI-HNE-3 reacting with hNE. Data obtained as described above are recorded as percent residual activity plotted as a function of added inhibitor. […] From the data, Kᵢ values for EPI-HNE-2 and for EPI-HNE-3 reacting with hNE at RT were calculated to be 4.8 pM and 6.2 pM, respectively.

[3] = target: T1, Human Neutrophil Elastase; assay: inhibition of hNE hydrolysis of a fluorogenic substrate, [hNE] = 8.47 × 10^-10 molar
Procedure: as §1, §2

Human Serum Thrombin = Human Serum Thrombin (human, UniProt P00734); assay: enzyme inhibition assay; limit on the assumption of less than 10% inhibition at the highest concentration tested
Human Plasma Factor Xa = Human Plasma Factor Xa (human, UniProt P00742); assay: as above
Human Urine Urokinase = Human Urine Urokinase (human, UniProt P00749); assay: as above
Human Serum Kallikrein = Human Serum Kallikrein (human, UniProt P03952); assay: as above
Human Serum Plasmin = Human Serum Plasmin (human, UniProt P00747); assay: as above
[4] = target: T1, Human Neutrophil Elastase; assay: calculated by the filing from koff = KD × kon
Text: […] […] B. Specificity.

[5] = target: Human Pancreatic Chymotrypsin (human, UniProt P17538); assay: enzyme inhibition assay; said to be probably not specific
[6] = target: T1, Human Neutrophil Elastase; assay: display phage on hNE beads, extended pH fractionation
Text: We characterized the binding properties to hNE-beads of MA-BITI and MA-BITI-E7 display phage using the extended pH fractionation procedure described in U.S. Pat. No. 5,223,409.

[7] = target: T1, Human Neutrophil Elastase; assay: display phage eluted from hNE beads, normalized to MA-EpiNE7 in a concurrent elution
[8] = target: T1, Human Neutrophil Elastase; assay: pH elution of display phage from hNE beads, abbreviated protocol
Text: (§3) Total pfu applied to the beads are in column two. The fractions of this input pfu recovered in each pH fraction of the abbreviated pH elution protocol (pH 7.0, pH 3.5, and pH 2.0) are in the next three columns. For data obtained using the extended pH elution protocol, the pH 3.5 listing represents the sum of the fractions of input recovered in the pH 6.0, pH 5.5, pH 5.0, pH 4.5, pH 4.0, and pH 3.5 elution samples. The pH 2.0 listing is the sum of the fractions of input obtained from the pH 3.0, pH 2.5, and pH 2.0 elution samples. The total fraction of input pfu obtained throughout the pH elution protocol is in the sixth column. The final column of the table lists the total fraction of input pfu recovered, normalized to the value obtained for MA-BITI-E7-141 phage.

[9] = target: T1, Human Neutrophil Elastase; assay: pH elution of display phage from hNE beads, extended protocol
Text: as §3

[10] = target: T1, Human Neutrophil Elastase; assay: estimated for the free domain from display phage binding to and elution from hNE beads
[11] = target: T1, Human Neutrophil Elastase; assay: pH elution of display phage from hNE beads
[12] = target: T1, Human Neutrophil Elastase; assay: abbreviated fractionation of display phage on hNE beads
Procedure: To test if ITI-D1E7-display phage bind hNE beads, pH elution profiles were measured. Aliquots of EpiNE-7, MA-ITI-D1, and MA-ITI-D1E7 display phage were incubated with hNE beads for three hours at room temperature (RT). The beads were washed and phage were eluted as described in U.S. Pat. No. 5,223,409, except that only three pH elutions were performed.

B1: EPI-HNE-4 (designed binder)
chain: EACNLPIVRGPCIAFFPRWAFDAVKGKCVLFPYGGCQGNGNKFYSEKECREYCGVP
kon [1]: 1.06e+07 M⁻¹ s⁻¹
Ki [2]: 0.005 nM
Kd [3]: 0.0046 nM
Ki (Human Serum Thrombin): > 90000 nM
Ki (Human Plasma Factor Xa): > 90000 nM
Ki (Human Urine Urokinase): > 90000 nM
Ki (Human Serum Kallikrein): > 90000 nM
Ki (Human Serum Plasmin): > 90000 nM
koff [4]: 4.9e-05 s⁻¹
Ki [5]: ~10000 nM

B2: MA-BITI display phage (designed binder)
chain: RPDFCQLGYSAGPCMGMTSRYFYNGTSMACETFQYGGCMGNGNNFVTEKDCLQTCRGA
SUM, fraction of input from all pH elution fractions [6]: 3.9e-05 fraction of input
SUM, total pfu from all pH elution fractions [6]: 800000 pfu
pfu eluted at pH 2.0 [6]: 7700 pfu
pfu eluted at pH 2.5 [6]: 22000 pfu
pfu eluted at pH 3.0 [6]: 22000 pfu
pfu eluted at pH 3.5 [6]: 86000 pfu
pfu eluted at pH 4.0 [6]: 31000 pfu
pfu eluted at pH 4.5 [6]: 44000 pfu
pfu eluted at pH 5.0 [6]: 96000 pfu
pfu eluted at pH 6.0 [6]: 250000 pfu
pfu eluted at pH 7.0 [6]: 240000 pfu
pfu/Input eluted at pH 2.0 [6]: 3.8e-07 fraction of input
pfu/Input eluted at pH 2.5 [6]: 1.1e-06 fraction of input
pfu/Input eluted at pH 3.0 [6]: 1.1e-06 fraction of input
pfu/Input eluted at pH 3.5 [6]: 4.3e-06 fraction of input
pfu/Input eluted at pH 4.0 [6]: 1.6e-06 fraction of input
pfu/Input eluted at pH 4.5 [6]: 2.2e-06 fraction of input
pfu/Input eluted at pH 5.0 [6]: 4.8e-06 fraction of input
pfu/Input eluted at pH 6.0 [6]: 1.2e-05 fraction of input
pfu/Input eluted at pH 7.0 [6]: 1.2e-05 fraction of input
Normalized fraction of input (relative to recovered MA-EpiNE7) [7]: 0.018 ratio

B3: MA-BITI-E7 display phage (designed binder)
chain: RPDFCQLGYSAGPCVAMFPRYFYNGTSMACETFQYGGCMGNGNNFVTEKDCLQTCRGA
SUM, fraction of input from all pH elution fractions [6]: 0.00029 fraction of input
SUM, total pfu from all pH elution fractions [6]: 1.8e+06 pfu
pfu eluted at pH 2.0 [6]: 8700 pfu
pfu eluted at pH 2.5 [6]: 23000 pfu
pfu eluted at pH 3.0 [6]: 89000 pfu
pfu eluted at pH 3.5 [6]: 90000 pfu
pfu eluted at pH 4.0 [6]: 240000 pfu
pfu eluted at pH 4.5 [6]: 380000 pfu
pfu eluted at pH 5.0 [6]: 370000 pfu
pfu eluted at pH 6.0 [6]: 280000 pfu
pfu eluted at pH 7.0 [6]: 280000 pfu
pfu/Input eluted at pH 2.0 [6]: 1.4e-06 fraction of input
pfu/Input eluted at pH 2.5 [6]: 3.8e-06 fraction of input
pfu/Input eluted at pH 3.0 [6]: 1.5e-05 fraction of input
pfu/Input eluted at pH 3.5 [6]: 1.5e-05 fraction of input
pfu/Input eluted at pH 4.0 [6]: 4e-05 fraction of input
pfu/Input eluted at pH 4.5 [6]: 6.3e-05 fraction of input
pfu/Input eluted at pH 5.0 [6]: 6.2e-05 fraction of input
pfu/Input eluted at pH 6.0 [6]: 4.7e-05 fraction of input
pfu/Input eluted at pH 7.0 [6]: 4.7e-05 fraction of input
Normalized fraction of input (relative to recovered MA-EpiNE7) [7]: 0.13 ratio

B4: MUTP1 display phage (designed binder)
chain: RPDFCQLGYSAGPCIGMFSRYFYNGTSMACETFQYGGCMGNGNNFVTEKDCLQTCRGA
Fraction of Input recovered at pH2.0 [8]: 0.00012 fraction of input
Fraction of Input recovered at pH3.5 [8]: 0.00092 fraction of input
Fraction of Input recovered at pH7.0 [8]: 0.00018 fraction of input
Recovery Relative to BITI-E7-141 [8]: 0.46 ratio
Recovery, Total fraction of input [8]: 0.0012 fraction of input

B5: MA-BITI-E7-141 display phage (designed binder)
chain: RPDFCQLGYSAGPCVAMFPRYFYNGTSMACQTFVYGGCMGNGNNFVTEKDCLQTCRGA
fold increase in total fraction of input eluted, relative to parental MA-BITI-E7 [6]: 10 fold
Fraction of Input recovered at pH2.0 [8]: 0.00054 fraction of input
Fraction of Input recovered at pH3.5 [8]: 0.0018 fraction of input
Fraction of Input recovered at pH7.0 [8]: 0.00022 fraction of input
Recovery Relative to BITI-E7-141 [8]: 1 ratio
Recovery, Total fraction of input [8]: 0.0026 fraction of input
Fraction of Input recovered at pH2.0 [9]: 0.00032 fraction of input
Fraction of Input recovered at pH3.5 [9]: 0.0021 fraction of input
Fraction of Input recovered at pH7.0 [9]: 0.00021 fraction of input
Recovery Relative to BITI-E7-141 [9]: 1 ratio
Recovery, Total fraction of input [9]: 0.0026 fraction of input
Estimated KD [10]: < 0.01 nM

B6: MUT1619 display phage (designed binder)
chain: RPDFCQLGYSAGPCVGMFSRYFYNGTSMACQTFVYGGCMGNGNNFVTEKDCLQTCRGA
Fraction of Input recovered at pH2.0 [9]: 8.4e-05 fraction of input
Fraction of Input recovered at pH3.5 [9]: 0.00099 fraction of input
Fraction of Input recovered at pH7.0 [9]: 8.2e-05 fraction of input
Recovery Relative to BITI-E7-141 [9]: 0.46 ratio
Recovery, Total fraction of input [9]: 0.0012 fraction of input
Estimated KD [10]: < 0.01 nM

B7: AMINO2 display phage (designed binder)
chain: KPDSCQLGYSAGPCVAMFPRYFYNGTSMACETFQYGGCMGNGNNFVTEKDCLQTCRGA
Fraction of Input recovered at pH2.0 [8]: 4.5e-05 fraction of input
Fraction of Input recovered at pH3.5 [8]: 0.00021 fraction of input
Fraction of Input recovered at pH7.0 [8]: 5.7e-05 fraction of input
Recovery Relative to BITI-E7-141 [8]: 0.12 ratio
Recovery, Total fraction of input [8]: 0.00031 fraction of input
fold reduction of binding against parental MA-BITI-E7-141 [11]: ≥ 10 fold

B8: MA-BITI-E7-1222 display phage (designed binder)
chain: RPDFCQLGYSTGPCVAMFPRYFYNGTSMACETFQYGGCMGNGNNFVTEKDCLQTCRGA
Fraction of Input recovered at pH2.0 [9]: 6.4e-05 fraction of input
Fraction of Input recovered at pH3.5 [9]: 0.0004 fraction of input
Fraction of Input recovered at pH7.0 [9]: 7.2e-05 fraction of input
Recovery Relative to BITI-E7-141 [9]: 0.21 ratio
Recovery, Total fraction of input [9]: 0.00054 fraction of input

B9: MUTQE display phage (designed binder)
chain: RPDFCQLGYSAGPCVAMFPRYFYNGTSMACETFVYGGCMGNGNNFVTEKDCLQTCRGA
Fraction of Input recovered at pH2.0 [8]: 0.00053 fraction of input
Fraction of Input recovered at pH3.5 [8]: 0.0016 fraction of input
Fraction of Input recovered at pH7.0 [8]: 0.00012 fraction of input
Recovery Relative to BITI-E7-141 [8]: 0.85 ratio
Recovery, Total fraction of input [8]: 0.0022 fraction of input
Estimated KD [10]: < 0.01 nM

B10: AMINO1 display phage (designed binder)
chain: KEDFCQLGYSAGPCVAMFPRYFYNGTSMACETFQYGGCMGNGNNFVTEKDCLQTCRGA
fold reduction of binding against parental MA-BITI-E7-141 [11]: ≥ 10 fold
Fraction of Input recovered at pH2.0 [9]: 3.5e-05 fraction of input
Fraction of Input recovered at pH3.5 [9]: 0.00023 fraction of input
Fraction of Input recovered at pH7.0 [9]: 2.4e-05 fraction of input
Recovery Relative to BITI-E7-141 [9]: 0.11 ratio
Recovery, Total fraction of input [9]: 0.00029 fraction of input

B11: MUTT26A display phage (designed binder)
chain: RPDFCQLGYSAGPCVAMFPRYFYNGASMACQTFVYGGCMGNGNNFVTEKDCLQTCRGA
Fraction of Input recovered at pH2.0 [9]: 0.00033 fraction of input
Fraction of Input recovered at pH3.5 [9]: 0.0019 fraction of input
Fraction of Input recovered at pH7.0 [9]: 0.00025 fraction of input
Recovery Relative to BITI-E7-141 [9]: 0.96 ratio
Recovery, Total fraction of input [9]: 0.0025 fraction of input
Estimated KD [10]: < 0.01 nM

B12: MA-ITI-D1 display phage (other)
chain: KEDSCQLGYSAGPCMGMTSRYFYNGTSMACETFQYGGCMGNGNNFVTEKDCLQTCRTVGA
Normalized fraction of input (relative to recovered MA-EpiNE7) [7]: 0.0067 ratio
SUM, total fraction of input from all pH elution fractions [12]: 1.4e-05 fraction of input
fraction of input eluted at pH 2.0 [12]: 1e-06 fraction of input
fraction of input eluted at pH 3.5 [12]: 3e-06 fraction of input
fraction of input eluted at pH 7.0 [12]: 1e-05 fraction of input
fraction of input in Wash [12]: 1e-05 fraction of input
